# Reference: PMC2847215
# T1: rMcrA-S (UniProt P24200 1-277)
# T1 sequence: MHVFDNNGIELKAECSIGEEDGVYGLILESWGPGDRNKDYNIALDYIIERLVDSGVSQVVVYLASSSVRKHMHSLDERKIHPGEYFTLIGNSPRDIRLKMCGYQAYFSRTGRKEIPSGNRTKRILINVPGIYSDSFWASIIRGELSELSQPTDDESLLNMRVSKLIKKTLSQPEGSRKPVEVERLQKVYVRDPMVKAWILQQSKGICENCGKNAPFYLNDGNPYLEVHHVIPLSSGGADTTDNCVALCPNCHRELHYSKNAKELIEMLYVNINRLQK
# Biological target: T1, rMcrA-S
# Test: EMSA
row,Binder,binding result
1,"TCGG cassette (dsDNA, m5C9 strand 1, m5C15 strand 2 (M.SssI)) DNA 1: CCCTCTGTCGGAGGAGGCTCCTGC DNA 2: GCAGGAGCCTCCTCCGACAGAGGG",binds
2,"CCGA cassette (dsDNA, m5C9 strand 1, m5C15 strand 2 (M.SssI)) DNA 1: CCCTCTGCCGAAGGAGGCTCCTGC DNA 2: GCAGGAGCCTCCTTCGGCAGAGGG",binds
3,"CCGG cassette (oligos 17/18) (dsDNA, m5C9 strand 1, m5C15 strand 2 (M.SssI)) DNA 1: CCCTCTGCCGGAGGAGGATCCTGC DNA 2: GCAGGATCCTCCTCCGGCAGAGGG",binds
4,"TCGA cassette (dsDNA, m5C9 strand 1, m5C15 strand 2 (M.SssI)) DNA 1: CCCTCTGTCGAAGGAGGCTCCTGC DNA 2: GCAGGAGCCTCCTTCGACAGAGGG",binds

# Biological target: T1, rMcrA-S
# Test: EMSA
# Remark: another data set of the same source
row,Binder,binding result
1,"CGC cassette (dsDNA, m5C9 strand 1, m5C15 strand 2 (M.SssI)) DNA 1: CCCTCTGACGCAGGAGGCTCCTGC DNA 2: GCAGGAGCCTCCTGCGTCAGAGGG",no binding
2,"CGT cassette (dsDNA, m5C9 strand 1, m5C15 strand 2 (M.SssI)) DNA 1: CCCTCTGACGTAGGAGGCTCCTGC DNA 2: GCAGGAGCCTCCTACGTCAGAGGG",no binding
3,unmethylated cassette (oligos 7/8) (dsDNA) DNA 1: GCCTTCAGCGCCGGCGGATCCAGT DNA 2: ACTGGATCCGCCGGCGCTGAAGGC,no binding
4,"C/G hemimethylated HpaII cassette (dsDNA, m5C12 in strand 1 only) DNA 1: GCCTTCAGCGCCGGCGGATCCAGT DNA 2: ACTGGATCCGCCGGCGCTGAAGGC",binds
5,"C/A mismatch cassette (dsDNA, m5C12 in strand 1 only) DNA 1: GCCTTCAGCGCCGGCGGATCCAGT DNA 2: ACTGGATCCGCCAGCGCTGAAGGC",no binding

# Biological target: T1, rMcrA-S
# Test: EMSA
# Remark: another data set of the same source
row,Binder,binding result
1,"cassette CCGG, single symmetric m5C in HpaII site (dsDNA, m5C12 in strand 1 and m5C12 in strand 2 (positions from site name)) DNA 1: GCCTTCAGCGCCGGCGGATCCAGT DNA 2: ACTGGATCCGCCGGCGCTGAAGGC",binds

# Biological target: T1, rMcrA-S
# Test: EMSA
# Remark: another data set of the same source
row,Binder,binding result
1,"GCGG cassette (dsDNA, m5C9 strand 1, m5C15 strand 2 (M.SssI)) DNA 1: CCCTCTGGCGGAGGAGGCTCCTGC DNA 2: GCAGGAGCCTCCTCCGCCAGAGGG",binds
2,"CGA and ACGA cassette (dsDNA, m5C9 strand 1, m5C15 strand 2 (M.SssI)) DNA 1: CCCTCTGACGAAGGAGGCTCCTGC DNA 2: GCAGGAGCCTCCTTCGTCAGAGGG",binds
3,"CGG and ACGG cassette (dsDNA, m5C9 strand 1, m5C15 strand 2 (M.SssI)) DNA 1: CCCTCTGACGGAGGAGGCTCCTGC DNA 2: GCAGGAGCCTCCTCCGTCAGAGGG",binds
4,"GCGA cassette (dsDNA, m5C9 strand 1, m5C15 strand 2 (M.SssI)) DNA 1: CCCTCTGGCGAAGGAGGCTCCTGC DNA 2: GCAGGAGCCTCCTTCGCCAGAGGG",binds
